Here are results for 2 molecules from patent publication US20220354880A1, “COMBINATION TREATMENT FOR CANCER” (AstraZeneca AB, priority 2019, published 2022).

One assay deals with MC-38 OVA. The experiment in a line: Low dose cisplatin anti-tumor activity in MC-38 OVA mice. As to conditions: cisplatin 5 mg/kg (approximately 60 mg/m^2 human dose). It counts as in vivo. How it is done:
FIGS. 1A-1C relate to Example 1.
A low dose treatment of cisplatin, 5 mg/kg (equivalent to approximately 60 mg/m^2 human dose) was tested for anti-tumor activity in MC-38 OVA mice.

A further assay deals with xenograft model. The conditions noted are these: via a T-cell dependent mechanism; cited from earlier work.
A further assay concerns human T-cell. The conditions noted are these: in vitro; cited from earlier work.

`N.N.[Cl][Pt][Cl]` [cisplatin]: in the assay on MC-38 OVA, the “anti-tumor activity (tumor growth inhibition)” value is “produces most tumor growth inhibition”.

B1: MEDI4736: anti-PD-L1 antibody selective for a PD-L1 polypeptide; SEQ ID NOs: 3-10 (antibody, V domains shown)
VH: EVQLVESGGGLVQPGGSLRLSCAASGFTFSRYWMSWVRQAPGKGLEWVANIKQDGSEKYYVDSVKGRFTISRDNAKNSLYLQMNSLRAEDTAVYYCAREGGWFGELAFDYWGQGTLVTVSS
VL: EIVLTQSPGTLSLSPGERATLSCRASQRVSSSYLAWYQQKPGQAPRLLIYDASSRATGIPDRFSGSGSGTDFTLTISRLEPEDFAVYYCQQYGSLPWTFGQGTKVEIK
modifications: MEDI4736 VH; Sequence 72 from PCT/US2010/058007; MEDI4736 VL; Sequence 77 from PCT/US2010/058007
In the case of B1, in the assay on xenograft model, the “tumor growth in a xenograft model” value is given as “inhibit tumor growth in a xenograft model”. Besides, the “PD-L1-mediated suppression of human T-cell activation” value with human T-cell is recorded as “can relieve PD-L1-mediated suppression of human T-cell activation in vitro”.
